# US7972771B2, “Human brain carboxypeptidase B” (priority 1999, dated 2011)
# T1: 40 kDa protease (Homo sapiens, UniProt Q96IY4, A169T/A260V/E345D/I347T/R257S)
# T1 construct: The 40 kDa proteolytic activity from fraction 19 was trapped in the column and recovered by elution; from tissue; host or cells: human hippocampus (autopsy brain)
# T1 sequence (Q96IY4 23-360 isoform Q96IY4-2 A169T/R220S/A223V/E308D/I310T limits assumed): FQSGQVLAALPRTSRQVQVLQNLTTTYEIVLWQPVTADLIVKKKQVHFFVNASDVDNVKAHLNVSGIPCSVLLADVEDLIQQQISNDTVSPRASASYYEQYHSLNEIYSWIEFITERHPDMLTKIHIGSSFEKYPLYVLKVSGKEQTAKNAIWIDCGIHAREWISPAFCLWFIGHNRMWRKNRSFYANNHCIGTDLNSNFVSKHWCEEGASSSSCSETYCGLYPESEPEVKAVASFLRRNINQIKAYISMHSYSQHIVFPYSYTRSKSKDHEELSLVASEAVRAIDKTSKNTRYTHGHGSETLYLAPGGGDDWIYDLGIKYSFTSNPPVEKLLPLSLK
# B1: fraction 11: native-PAGE fraction of about 30 kDa with proteolytic activity; mature form of HBCPB (protein)
# chain: ASASYYEQYHSLNEIYSWIEFITERHPDMLTKIHIGSSFEKYPLYVLKVSGKEQTAKNAIWIDCGIHAREWISPAFCLWFIGHNRMWRKNRSFYANNHCIGTDLNRNFASKHWCEEGASSSSCSETYCGLYPESEPEVKAVASFLRRNINQIKAYISMHSYSQHIVFPYSYTRSKSKDHEELSLVASEAVRAIEKTSKNTRYTHGHGSETLYLAPGGGDDWIYDLGIKYSFTSNPPVEKLLPLSLK
# B2: 40 kDa protein: 40 kDa protease purified from human hippocampal homogenate; brain carboxypeptidase B (SEQ ID NO: 2) (protein, listed as Homo sapiens)
# chain: MKLCSLAVLVPIVLFCEQHVFAFQSGQVLAALPRTSRQVQVLQNLTTTYEIVLWQPVTADLIVKKKQVHFFVNASDVDNVKAHLNVSGIPCSVLLADVEDLIQQQISNDTVSPRASASYYEQYHSLNEIYSWIEFITERHPDMLTKIHIGSSFEKYPLYVLKVSGKEQTAKNAIWIDCGIHAREWISPAFCLWFIGHNRMWRKNRSFYANNHCIGTDLNSNFVSKHWCEEGASSSSCSETYCGLYPESEPEVKAVASFLRRNINQIKAYISMHSYSQHIVFPYSYTRSKSKDHEELSLVASEAVRAIDKTSKNTRYTHGHGSETLYLAPGGGDDWIYDLGIKYSFTSNPPVEKLLPLSLK
# How the values were obtained:
# 40 kDa protease = target: T1, 40 kDa protease; test: Inhibition of natural brain APP degradation by the 40 kDa protease (Western blot, anti Aβ 1/14 or anti APP-CT antibody); format: biochemical; settings: 37° C., 3 h
# Experimental: After separation of proteins by SDS-PAGE, proteins on the gel was blotted onto a Hybond C nitrocellulose membrane (Amersham Pharmacia, UK), after which non-specific binding was blocked by immersing the membrane in 5% bovine serum albumin for 1 h in Tris-buffered saline: 100 mM Tris-HCl (pH 7.5), 140 mM NaCl and 0.1% Tween 20. The membrane next was washed for 45 min with three changes of the above buffer then incubated at 4° C. for 16 h with the first antibody (anti Aβ 1/14 antibody) appropriately diluted with Tris-buffered saline. After again washing it as above, the membrane was incubated at room temperature for 1 h with a horseradish peroxidase-labeled anti rabbit second antibody diluted 1:2000. After the washing, signals were detected on X-ray film using an ECL chemiluminescence detection system (Amersham Pharmacia, UK).
# [1] = Stability of proteolytic activity of native-PAGE fraction; format: physicochemical
# From the text: Of the 61 fractions analyzed, fraction 19 with a molecular mass of about 40 kDa and fraction 11 with a molecular mass of about 30 kDa had similar proteolytic activities. […] Fraction 19 with the 40 kDa molecular mass with proteolytic activity therefore was further purified.
# natural brain APP = test: Proteolysis of natural brain APP by the isolated 40 kDa protease (Western blot); format: biochemical, human; settings: 0.1 pmol APP, 0.005 to 0.1 pmol protease, 37° C., 3 h, 1 mM Zn2+; generates 5.5 kDa fragment
# Experimental: In the proteolytic analysis of the fractions for natural brain APP, approximately 0.1 pmol of natural brain APP prepared from human hippocampus was incubated at 37° C. for 3 h with each fraction (approximately 0.05 pmol) in the presence of 1 mM Zn^2+. To obtain proteolytic activities of interest, each reaction mixture was loaded in parallel wells for SDS-PAGE then subjected to Western blot analysis using anti Aβ 1/14 antibody (Calbiochem) as follows.
# After separation of proteins by SDS-PAGE, proteins on the gel was blotted onto a Hybond C nitrocellulose membrane (Amersham Pharmacia, UK), after which non-specific binding was blocked by immersing the membrane in 5% bovine serum albumin for 1 h in Tris-buffered saline: 100 mM Tris-HCl (pH 7.5), 140 mM NaCl and 0.1% Tween 20. The membrane next was washed for 45 min with three changes of the above buffer then incubated at 4° C. for 16 h with the first antibody (anti Aβ 1/14 antibody) appropriately diluted with Tris-buffered saline. […] After the washing, signals were detected on X-ray film using an ECL chemiluminescence detection system (Amersham Pharmacia, UK).
# The brain APP substrate (approximately 0.1 pmol) was treated with the 40 kDa protease (0.005 to 0.1 pmol) at 37° C. for 3 h in the presence of 1 mM Zn^2+ to analyze the isolated 40 kDa protease. The reaction product analyzed by Western blotting with anti Aβ 1/14 antibody (FIG. 2). […]
# synthetic Aβ 1-42 = test: Carboxypeptidase digestion of synthetic Aβ 1-42 (Western blot); format: biochemical; settings: 0.01 pM to 0.2 pM enzyme, 0.1 pM substrate, 37° C., 16 hours
# From the text: (§1) In Western blot analysis, low-molecular weight peptides (in which several amino acids have shifted) can be confirmed by anti-Aβ-N-terminus antibody regarding the Aβ 1-40 substrate, however this cannot be confirmed by the anti-Aβ 40 fragment antibody. On the other hand, low-molecular weight peptides (in which several amino acids have shifted) can be confirmed by anti-Aβ-N-terminus antibody regarding the Aβ 1-42 substrate, however this cannot be confirmed by the anti-Aβ 42 fragment antibody.
# synthetic Aβ 1-40 = test: Carboxypeptidase digestion of synthetic Aβ 1-40 (Western blot); format: biochemical; settings: 0.01 pM to 0.2 pM enzyme, 0.1 pM substrate, 37° C., 16 hours
# From the text: as §1
molecule,measurement,setting,value
"potato carboxypeptidase inhibitor: potato carboxypeptidase inhibitor (BioPur, Switzerland) (QQHADPICNKPCKTHDDCSGAWFCQACWNSARTCGPYVG)",inhibition of brain APP degradation reaction,"40 kDa protease; 1 mM potato carboxypeptidase inhibitor, 1 mM Zn2+, FIG. 2 lane 4",completely inhibited
chondroitinase ABC,inhibition of brain APP degradation reaction,"40 kDa protease; APP pretreated with 0.5 pmol chondroitinase ABC, FIG. 2 lane 3",almost completely inhibited
B1,activity after long-term storage,[1]; 2 w at −20° C.,lost its activity
same,time to loss of proteolytic activity,[1]; room temperature,≤ 30 min
B2,degradation of natural brain APP,natural brain APP,degraded natural brain APP
same,formation of low-molecular weight peptides from Aβ 1-42,synthetic Aβ 1-42,low-molecular weight peptides formed in a dose-dependent manner
same,formation of low-molecular weight peptides from Aβ 1-40,synthetic Aβ 1-40,low-molecular weight peptides formed in a dose-dependent manner
